Measured values taken from publication PMC7452893 (2020).
Where a chain is given by its changes, count along the chain named.

B1: MD29 (antibody, V domains shown)
VH: QMQLVQSGGGLVQPGGSLRLSCSASGFTFSTYVMNWVRQAPGKGPEHVSGISSDGGITYYADSVKGRFTISRDNSKNTLYLQMSSLRVEDTAVYYCVKDQDSSSWYDAFDIWGQGTMVTVSS
VL: NIRLTQSPSSLSASVGDRVTITCRATQSISSYLNWYQQKPGKAPNLLIYAASSLQSGVPSRFSGSGSGTDFTLTISSLQPEDFATYYCHQTYTSPYTFGQGTKLEIK
modifications: biotinylated when immobilised on the BLI sensor
B2: MD17 (antibody, V domains shown)
VH: B1 VH with Q1E, M2V, V5L, Q6E, P45L
VL: DIVMTQSPSSLSASVGDRVTITCRASQSISNYLNWYQQKLGKAPKLLTYAASRLQSGVPSRFSASGSGTEFTLTISSLQPEDFATYYCQQSYTTPLTFGGGTKLEIK
modifications: biotinylated when immobilised on the BLI sensor
B3: MD63 (antibody, V domains shown)
VH: QVTLKESGGGVVQPGRSLRLSCAASGFTFSSYAMHWVRQAPGKGLEHVSAISSDGGITYFADSVKGRFTISRDNSRNTLFLQMSSLRVEDTAVYYCVKDQDSNSWYDAFDIWGRGTMVTVSS
VL: not shown
modifications: biotinylated when immobilised on the BLI sensor
B4: MD67 (antibody, V domains shown)
VH: EVQLVESGGGLVQPGGSLRLSCAASGFTVSSNYMTWVRQAPGKGLEWVSVIYSGGSTFYADSVKGRFTISRHNSKNTLYLQMNSLRAEDTAVYYCARDLSVRGGMDVWGQGTTVTVSS
VL: not shown
modifications: biotinylated when immobilised on the BLI sensor
B5: MD45 (antibody, V domains shown)
VH: B4 VH with E6Q, T113M
VL: EIVLTQSPGTLSLSPGERATLSCRASQSVNSSYLAWYQQKPGQAPRLLIYGASNRATGIPDRFSGSGSGTDFTLTISRLEPEDFAVYYCQQYGVSPEIIFGQGTRLEIK
modifications: biotinylated when immobilised on the BLI sensor
B6: MD62 (antibody, V domains shown)
VH: EVQLVQSGGGLIQPGGSLRLSCAASGVTVSSNYMTWVRQAPGKGLEWVSLIYSGGSTYYADSVKGRFTISRDNSKNTLYLQMNSLRAEDTAVYYCARDLQYYGMDVWGQGTMVTVSS
VL: AIRMTQSPSSVSASVGDRVTITCRASQDIGSWLGWYQQKPGKAPKLLIYAASSLAGGVPSRFSGSGSGTDFTLTISSLQPEDFATYYCQQANSFPLTFGGGTKLEIK
modifications: biotinylated when immobilised on the BLI sensor
B7: MD47 (antibody, V domains shown)
V domain 1: QMQLVQSGGGLVQPGGSLRLSCAASGFTFSSYAMSWVRQAPGKGLEWVSAISSGGSTYYADSVKGRFTISRDNSKNTLYLQMNSLRAEDTAVYYCAKDLVTAPSYEAFDIWGQGTMITVSS
V domain 2: NFMLTQPPSVSVAPGKTARITCGGNNIGSKSVHWYQQKPGQAPVLVIYYDSDRPSGIPERFSGSNSGNTATLTISRVEAGDEADYYCQVWDSSSHHHVVFGGGTKGTVL
modifications: biotinylated when immobilised on the BLI sensor

Each binder was assayed against T1, SARS-CoV-2 spike receptor-binding domain (RBD), monomeric (SARS-CoV-2, UniProt P0DTC2) (assay: BLI).

Row | Binder | koff [s⁻¹]
1 | B1 | 0.00014
2 | B2 | 0.00026
3 | B3 | 0.00053
4 | B4 | 0.00075
5 | B5 | 0.00055
6 | B6 | 0.00063
7 | B7 | 9e-05

Molecular target: T1, SARS-CoV-2 spike receptor-binding …
Experiment: BLI
Remark: another data set of the same source

Row | Binder | Kd [nM]
8 | B2 | 2.6
9 | B3 | 3.4
10 | B5 | 5.6
11 | B6 | 4.8
12 | B7 | 0.5
